Experiment [1] deals with endogenous IL-22 receptor on AsPC-1 cells (UniProt Q8N6P7). Put plainly: cell-based or functional assay.
Experiment [2] addresses T1, endogenous IL-22 receptor on AsPC-1 cells (UniProt Q8N6P7 16-574, limits assumed).
T1 sequence (looked up): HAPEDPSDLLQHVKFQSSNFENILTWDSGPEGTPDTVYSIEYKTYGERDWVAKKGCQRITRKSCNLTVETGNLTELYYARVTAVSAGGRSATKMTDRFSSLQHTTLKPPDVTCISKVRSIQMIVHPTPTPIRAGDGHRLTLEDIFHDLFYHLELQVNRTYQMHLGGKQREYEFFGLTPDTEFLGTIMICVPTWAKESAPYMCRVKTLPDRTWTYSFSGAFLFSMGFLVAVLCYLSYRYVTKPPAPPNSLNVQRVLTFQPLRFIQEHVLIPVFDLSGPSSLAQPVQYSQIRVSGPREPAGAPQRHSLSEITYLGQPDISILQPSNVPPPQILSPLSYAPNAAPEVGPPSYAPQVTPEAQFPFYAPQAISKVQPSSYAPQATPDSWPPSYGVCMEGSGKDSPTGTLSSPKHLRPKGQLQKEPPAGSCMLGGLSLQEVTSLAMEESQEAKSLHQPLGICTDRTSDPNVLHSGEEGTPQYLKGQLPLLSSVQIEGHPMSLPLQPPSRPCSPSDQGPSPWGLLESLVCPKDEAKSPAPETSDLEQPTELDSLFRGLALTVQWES
Nature of the experiment: cell-based or functional assay.

Experiment [3] addresses T2, mIL22RA1-Fc fusion protein (mouse, UniProt Q80XZ4 16-230, limits assumed).
T2 construct: also called mouse IL-22Ra 1; IL-22Rα-1; not shown: Fc part
T2 sequence (looked up): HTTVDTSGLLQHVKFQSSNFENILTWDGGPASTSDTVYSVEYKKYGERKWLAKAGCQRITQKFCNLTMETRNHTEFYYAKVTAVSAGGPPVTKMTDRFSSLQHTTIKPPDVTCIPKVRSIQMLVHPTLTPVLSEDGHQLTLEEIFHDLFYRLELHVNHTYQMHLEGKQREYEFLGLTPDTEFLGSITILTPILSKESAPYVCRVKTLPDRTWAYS
Nature of the experiment: BLI (Octet RED96); mIL22RA1-Fc captured on AHC biosensor, fusion protein in solution at 400 nM, global fit. The method, then:
OCTET® RED96 was used to characterize the interactions of an IL-22 fusion protein with a mouse IL-22Ra 1 (mIL22RA1). Briefly, an mIL22RA1-Fc fusion protein was loaded onto an anti-human IgG Fc capture (AHC) biosensor. The biosensor was then dipped into a solution containing the IL-22 fusion protein at 400 nM. Primary experimental data was analyzed with global fitting to determine a dissociation constant (Kd).

The values below come from patent US20220033454A1 (ANWITA BIOSCIENCES, published 2022).

With “recombinant human IL-22 (from UniProt Q9GZX6 34-179) (ligand)”, the EC50 of STAT3 phosphorylation (phospho-STAT3 Tyr705 HTRF) in AsPC-1 cells in experiment [1] worked out at 90 nM.

B1: mIL-22-anti-HSA-mIL-22 A8 (other)
chain: LPVNTRCKLEVSNFQQPYIVNRTFMLAKEASLADNNTDVRLIGEKLFRGVSAKDQCYLMKQVLNFTLEDVLLPQSDRFQPYMQEVVPFLTKLSNQLSSCHISGDDQNIQKNVRRLKETVKKLGESGEIKAIGELDLLFMSLRNACVSGGGGSGGGGSGGGGSEVQLVESGGGLVQPGGSLRLSCAASGSTWSINTLAWYRQAPGKQRDLVARISSGGSTYYADSVKGRFTISRDNSKNTLYLQMNSLRAEDTAVYYCYAQSTWYPPSWGQGTLVTVSSGGGSGGGSGGGSGGGSLPVNTRCKLEVSNFQQPYIVNRTFMLAKEASLADNNTDVRLIGEKLFRGVSAKDQCYLMKQVLNFTLEDVLLPQSDRFQPYMQEVVPFLTKLSNQLSSCHISGDDQNIQKNVRRLKETVKKLGESGEIKAIGELDLLFMSLRNACV
notes: Single-chain fusion with two IL-22 domains, expressed in ExpiCHO cells; also called fusion protein A8
Consider B1, for which the “EC50 of STAT3 phosphorylation (phospho-STAT3 Tyr705 HTRF) in AsPC-1 cells” value (shortened to “EC50 of STAT3 phosphorylation”) in experiment [2] amounted to 500 nM. The molecule further yielded a dissociation constant Kd in experiment [3] of 1.2 nM.

B2: mIL-22-anti-HSA A2 (other)
chain: LPVNTRCKLEVSNFQQPYIVNRTFMLAKEASLADNNTDVRLIGEKLFRGVSAKDQCYLMKQVLNFTLEDVLLPQSDRFQPYMQEVVPFLTKLSNQLSSCHISGDDQNIQKNVRRLKETVKKLGESGEIKAIGELDLLFMSLRNACVSGGGGSGGGGSGGGGSEVQLVESGGGLVQPGGSLRLSCAASGSTWSINTLAWYRQAPGKQRDLVARISSGGSTYYADSVKGRFTISRDNSKNTLYLQMNSLRAEDTAVYYCYAQSTWYPPSWGQGTLVTVSS
notes: Single-chain fusion, expressed in ExpiCHO cells; also called fusion protein A2
Consider B2, for which the “EC50 of STAT3 phosphorylation” value in experiment [2] is 700 nM. Further, the affinity in experiment [3], expressed as Kd, was 61 nM.

B3: mIL-22-anti-HSA-mIL-22 A9 (other)
chain: LPVNTRCKLEVSNFQQPYIVNRTFMLAKEASLADNNTDVRLIGEKLFRGVSAKDQCYLMKQVLNFTLEDVLLPQSDRFQPYMQEVVPFLTKLSNQLSSCHISGDDQNIQKNVRRLKETVKKLGESGEIKAIGELDLLFMSLRNACVSGGGGSGGGGSGGGGSQVQLVESGGGVVQPGGSLRLSCAASGFAFRGFGMSWVRQAPGKGLEWVSSINNGGSDTYYADSVKGRFTISRDNSKNTLYLQMNSLRAEDTAVYYCAIGGPGASPSGQGTQVTVSSGGGSGGGSGGGSGGGSLPVNTRCKLEVSNFQQPYIVNRTFMLAKEASLADNNTDVRLIGEKLFRGVSAKDQCYLMKQVLNFTLEDVLLPQSDRFQPYMQEVVPFLTKLSNQLSSCHISGDDQNIQKNVRRLKETVKKLGESGEIKAIGELDLLFMSLRNACV
notes: Single-chain fusion with two IL-22 domains, expressed in ExpiCHO cells
For B3, in experiment [2], the “EC50 of STAT3 phosphorylation” value was determined as 500 nM. This molecule yielded an equilibrium dissociation constant (Kd) in experiment [3] of 0.77 nM.

B4: mIL-22-anti-HSA A4 (other)
chain: LPVNTRCKLEVSNFQQPYIVNRTFMLAKEASLADNNTDVRLIGEKLFRGVSAKDQCYLMKQVLNFTLEDVLLPQSDRFQPYMQEVVPFLTKLSNQLSSCHISGDDQNIQKNVRRLKETVKKLGESGEIKAIGELDLLFMSLRNACVSGGGGSGGGGSGGGGSQVQLVESGGGVVQPGGSLRLSCAASGFAFRGFGMSWVRQAPGKGLEWVSSINNGGSDTYYADSVKGRFTISRDNSKNTLYLQMNSLRAEDTAVYYCAIGGPGASPSGQGTQVTVSS
notes: Single-chain fusion, expressed in ExpiCHO cells
On to B4, for which, in experiment [2], the “EC50 of STAT3 phosphorylation” value is 600 nM. Also, binding in experiment [3] was put at a Kd of 67 nM.

B5: hIL-22-anti-HSA A1 (other)
chain: APISSHCRLDKSNFQQPYITNRTFMLAKEASLADNNTDVRLIGEKLFHGVSMSERCYLMKQVLNFTLEEVLFPQSDRFQPYMQEVVPFLARLSNRLSTCHIEGDDLHIQRNVQKLKDTVKKLGESGEIKAIGELDLLFMSLRNACISGGGGSGGGGSGGGGSEVQLVESGGGLVQPGGSLRLSCAASGSTWSINTLAWYRQAPGKQRDLVARISSGGSTYYADSVKGRFTISRDNSKNTLYLQMNSLRAEDTAVYYCYAQSTWYPPSWGQGTLVTVSS
notes: Single-chain fusion of IL-22 and an anti-HSA VHH, expressed in ExpiCHO cells; also called fusion protein A1
For B5, in experiment [2], the “EC50 of STAT3 phosphorylation” value is 800 nM. Besides, in experiment [3], the affinity, expressed as Kd, was 300 nM.

B6: mIL-22-hIgG1 Fc B1 (Fc fusion)
chain: LPVNTRCKLEVSNFQQPYIVNRTFMLAKEASLADNNTDVRLIGEKLFRGVSAKDQCYLMKQVLNFTLEDVLLPQSDRFQPYMQEVVPFLTKLSNQLSSCHISGDDQNIQKNVRRLKETVKKLGESGEIKAIGELDLLFMSLRNACVARGPTIKPCPPCKCPAPNLLGGPSVFIFPPKIKDVLMISLSPIVTCVVVDVSEDDPDVQISWFVNNVEVHTAQTQTHREDYNSTLRVVSALPIQHQDWMSGKEFKCKVNNKDLPAPIERTISKPKGSVRAPQVYVLPPPEEEMTKKQVTLTCMVTDFMPEDIYVEWTNNGKTELNYKNTEPVLDSDGSYFMYSKLRVEKKNWVERNSYSCSVVHEGLHNHHTTKSFSRTPGK
With B6, in experiment [3], the Kd was found to be 1.4 nM.

B7: Anti-HSA-mIL-22 A3 (other)
chain: QVQLVESGGGVVQPGGSLRLSCAASGFAFRGFGMSWVRQAPGKGLEWVSSINNGGSDTYYADSVKGRFTISRDNSKNTLYLQMNSLRAEDTAVYYCAIGGPGASPSGQGTQVTVSSGGGSGGGSGGGSGGGSLPVNTRCKLEVSNFQQPYIVNRTFMLAKEASLADNNTDVRLIGEKLFRGVSAKDQCYLMKQVLNFTLEDVLLPQSDRFQPYMQEVVPFLTKLSNQLSSCHISGDDQNIQKNVRRLKETVKKLGESGEIKAIGELDLLFMSLRNACV
notes: as for B4
Consider B7, for which the “EC50 of STAT3 phosphorylation” value in experiment [2] worked out at 500 nM. The molecule also displayed a dissociation constant Kd in experiment [3] of 30 nM.

For orientation: Kd means the equilibrium constant for the complex coming apart. Read a low Kd as tighter binding.
